{"source": "paper PMC5722895", "about": "“The dynamic dimer structure of the chaperone Trigger Factor” (Nature Communications, 2017)", "proteins": {"B1": {"name": "SBD–PPD (114–432) (domain or fragment, E. coli, UniProt P0A850 114-432, looked up)", "chain": "EVELQGLEAIEVEKPIVEVTDADVDGMLDTLRKQQATWKEKDGAVEAEDRVTIDFTGSVDGEEFEGGKASDFVLAMGQGRMIPGFEDGIKGHKAGEEFTIDVTFPEEYHAENLKGKAAKFAINLKKVEERELPELTAEFIKRFGVEDGSVEGLRAEVRKNMERELKSAIRNRVKSQAIEGLVKANDIDVPAALIDSEIDVLRRQAAQRFGGNEKQALELPRELFEEQAKRRVVVGLLLGEVIRTNELKADEERVKGLIEEMASAYEDPKEVIEFYSKNKELMDNMRNVALEEQAVEAVLAKAKVTEKETTFNELMNQQA", "notes": "Trigger Factor, E. coli, residues 114-432; also called bi-domain construct SBD–PPD; not shown: His tag, N-terminal, cleaved"}, "B2": {"name": "PPD (149–249) (domain or fragment, E. coli, UniProt P0A850 149-249, looked up)", "chain": "ATWKEKDGAVEAEDRVTIDFTGSVDGEEFEGGKASDFVLAMGQGRMIPGFEDGIKGHKAGEEFTIDVTFPEEYHAENLKGKAAKFAINLKKVEERELPELT", "notes": "Trigger Factor, E. coli, residues 149-249; also called peptidyl-prolyl isomerase domain; not shown: His tag, N-terminal, cleaved"}, "B3": {"name": "SBD (114–148/247–432) (domain or fragment, E. coli, UniProt P0A850 114-148, looked up)", "chain": "EVELQGLEAIEVEKPIVEVTDADVDGMLDTLRKQQELTAEFIKRFGVEDGSVEGLRAEVRKNMERELKSAIRNRVKSQAIEGLVKANDIDVPAALIDSEIDVLRRQAAQRFGGNEKQALELPRELFEEQAKRRVVVGLLLGEVIRTNELKADEERVKGLIEEMASAYEDPKEVIEFYSKNKELMDNMRNVALEEQAVEAVLAKAKVTEKETTFNELMNQQA", "notes": "Trigger Factor, E. coli, residues 114-148 (linker part of the SBD); Trigger Factor, E. coli, residues 247-432 (C-terminal part of the SBD); The PPD (149-246) is left out; not shown: His tag, N-terminal, cleaved"}, "B4": {"name": "RBD (residues 1–117) (domain or fragment, E. coli, UniProt P0A850 1-117, looked up)", "chain": "MQVSVETTQGLGRRVTITIAADSIETAVKSELVNVAKKVRIDGFRKGKVPMNIVAQRYGASVRQDVLGDLMSRNFIDAIIKEKINPAGAPTYVPGEYKLGEDFTYSVEFEVYPEVEL", "notes": "Trigger Factor, E. coli, residues 1-117 (stop codon at position 118); not shown: His tag, N-terminal, cleaved"}, "B5": {"name": "TF(3A) with mutation set mutC (M140E) (natural protein, E. coli, UniProt P0A850 1-432, looked up)", "chain": "MQVSVETTQGLGRRVTITIAADSIETAVKSELVNVAKKVRIDGAAAGKVPMNIVAQRYGASVRQDVLGDLMSRNFIDAIIKEKINPAGAPTYVPGEYKLGEDFTYSVEFEVYPEVELQGLEAIEVEKPIVEVTDADVDGELDTLRKQQATWKEKDGAVEAEDRVTIDFTGSVDGEEFEGGKASDFVLAMGQGRMIPGFEDGIKGHKAGEEFTIDVTFPEEYHAENLKGKAAKFAINLKKVEERELPELTAEFIKRFGVEDGSVEGLRAEVRKNMERELKSAIRNRVKSQAIEGLVKANDIDVPAALIDSEIDVLRRQAAQRFGGNEKQALELPRELFEEQAKRRVVVGLLLGEVIRTNELKADEERVKGLIEEMASAYEDPKEVIEFYSKNKELMDNMRNVALEEQAVEAVLAKAKVTEKETTFNELMNQQA", "notes": "Trigger Factor, E. coli, residues 1-432, TF(3A) background; not shown: His6, N-terminal, cleaved"}, "B6": {"name": "TF(3A) with mutation set mutB (M374A, Y378A, V384A, F387A) (natural protein, E. coli, UniProt P0A850 1-432, looked up)", "chain": "B5 chain with E140M, M374A, Y378A, V384A, F387A", "notes": "as for B5"}, "B7": {"name": "TF(3A) with mutation sets mutB + mutC (M374A, Y378A, V384A, F387A, M140E) (natural protein, E. coli, UniProt P0A850 1-432, looked up)", "chain": "B5 chain with M374A, Y378A, V384A, F387A", "notes": "Trigger Factor, E. coli, residues 1-432, TF(3A) background; also called mutC + mutB; not shown: His6, N-terminal, cleaved"}, "B8": {"name": "TF(3A) variant TF(F44A, R45A, K46A) (natural protein, E. coli, UniProt P0A850 1-432, looked up)", "chain": "B5 chain with E140M", "notes": "not shown: His6, N-terminal, cleaved"}, "B9": {"name": "TF(3A) with mutation set mutD (R316A, R321A) (natural protein, E. coli, UniProt P0A850 1-432, looked up)", "chain": "B5 chain with E140M, R316A, R321A", "notes": "as for B5"}, "B10": {"name": "TF(3A) with mutation sets mutB + mutD (M374A, Y378A, V384A, F387A, R316A, R321A) (natural protein, E. coli, UniProt P0A850 1-432, looked up)", "chain": "B5 chain with E140M, R316A, R321A, M374A, Y378A, V384A, F387A", "notes": "as for B5"}, "B11": {"name": "TF(3A) with mutation sets mutD + mutC (R316A, R321A, M140E) (natural protein, E. coli, UniProt P0A850 1-432, looked up)", "chain": "B5 chain with R316A, R321A", "notes": "Trigger Factor, E. coli, residues 1-432, TF(3A) background; also called mutC + mutD; not shown: His6, N-terminal, cleaved"}}, "note": "Positions count from the first letter of the chain named. In names and notes the source's numbering stands.", "data": [{"target": "the molecule itself", "assay": "SEC-MALS; sample buffer (20 mM K-phosphate pH 6.5, 100 mM KCl, 0.5 mM EDTA); 6 °C for the individual domains; concentration series fitted to a fast monomer–dimer equilibrium; dimer to monomers", "units": {"Kd": "µM"}, "values": [{"protein": "B1", "Kd": "> 1000"}, {"protein": "B2", "Kd": "> 5000"}, {"protein": "B3", "Kd": "> 1000"}, {"protein": "B4", "Kd": "≥ 1500"}]}, {"target": "the molecule itself", "assay": "SEC-MALS; concentration series of full-length TF and full-length mutants alone, 26 °C, sample buffer (20 mM K-phosphate pH 6.5, 100 mM KCl, 0.5 mM EDTA); fit to a fast monomer-dimer equilibrium; dimer to monomers", "units": {"Kd": "µM"}, "values": [{"protein": "B5", "Kd": 28}, {"protein": "B6", "Kd": "> 1000"}, {"protein": "B7", "Kd": "> 1000"}, {"protein": "B8", "Kd": 1.1}, {"protein": "B9", "Kd": 22}, {"protein": "B10", "Kd": "> 1000"}, {"protein": "B11", "Kd": 260}]}]}
